Measurements taken from PMC9019556, “Molecular interactions of STAC proteins with skeletal muscle dihydropyridine receptor and excitation‐contraction coupling” (Protein Science : A Publication of the Protein Society, 2022).

T1: full-length II–III loop of the skeletal muscle dihydropyridine receptor α1S subunit (UniProt P07293 665-785)
T1 construct: cytosolic II–III loop of the DHPR α1S subunit (skeletal muscle voltage-dependent L-type calcium channel), 115 amino acids; The methods' sentence 'genes for human STAC2SH3s and the DHPR II–III loop' leaves open whether the loop is human; Used unlabelled (SPR, immobilised) and 15N-labelled (NMR); also called DHPR II–III loop; full II–III loop
T1 sequence (looked up): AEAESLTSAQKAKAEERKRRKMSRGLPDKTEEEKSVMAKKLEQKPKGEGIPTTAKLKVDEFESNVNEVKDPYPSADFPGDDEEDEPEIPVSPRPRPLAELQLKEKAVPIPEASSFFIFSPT

B1: tandem SH3 domains of STAC3 (SH3 and cysteine-rich domain-containing protein 3) (domain or fragment, human)
chain: GFQQSHYFVALYRFKALEKDDLDFPPGEKITVIDDSNEEWWRGKIGEKVGFFPPNFIIRVRAGERVHRVTRSFVGNREIGQITLKKDQIVVQKGDEAGGYVKVYTGRKVGLFPTDFLEEI
notes: human STAC3, tandem SH3 domains (SH3_1 and SH3_2) at the C-terminal end; Used unlabelled (SPR, titrant in NMR) and 15N-labelled (NMR titration with the C3 peptide); also called STAC3SH3s
B2: tandem SH3 domains of STAC2 (domain or fragment, human)
chain: SYVALYKFLPQENNDLALQPGDRIMLVDDSNEDWWKGKIGDRVGFFPANFVQRVRPGENVWRCCQPFSGNKEQGYMSLKENQICVGVGRSKDADGFIRVSSGKKRGLVPVDALTEI
notes: human STAC2, tandem SH3 domains (SH3_1 and SH3_2) at the C-terminal end; Used unlabelled (SPR) and 15N-labelled (NMR); also called STAC2SH3s

Target: T1, full-length II–III loop of the skeletal …
Assay: SPR; full DHPR II–III loop immobilised on a CM5 chip by amine coupling; STAC proteins flowed over at 30 μL/min for 120 s; Biacore 8K, 20°C; 10 mM HEPES-HCl pH 7.4, 150 mM NaCl, 0.05% Tween-20, 3 mM EDTA; affinity curve
Details: both partners purified

| Binder | Kd [µM] |
| --- | --- |
| B1 | 21 |
| B2 | 22.6 |
